Experimental data from paper PMC3835790, “Statistical Experimental Design Guided Optimization of a One-Pot Biphasic Multienzyme Total Synthesis of Amorpha-4,11-diene” (PLoS ONE, 2013).

How the values were obtained:
Details in all cases: 100 mM Tris/HCl pH 7.4, 30°C
[1] = substrate: C[C@@](O)(CCOP(=O)(O)OP(=O)(O)O)CC(=O)O; experiment: initial rates, UPLC-(TOF)MS, double-reciprocal plot; type: biochemical, Saccharomyces cerevisiae
Description: initial rates, UPLC-(TOF)MS, double-reciprocal plot on diphosphomevalonate decarboxylase (Erg19)

[2] = substrate: C[C@@](O)(CCOP(=O)(O)O)CC(=O)O; experiment: as above; type: biochemical, Saccharomyces cerevisiae
Description: initial rates, UPLC-(TOF)MS, double-reciprocal plot on phosphomevalonate kinase (Erg8)

purified protein = substrate: CC(O)(CCO)CC(=O)O; experiment: purified protein

B1: diphosphomevalonate decarboxylase (Erg19) (Saccharomyces cerevisiae S288C) (protein)
chain: MTVYTASVTAPVNIATLKYWGKRDTKLNLPTNSSISVTLSQDDLRTLTSAATAPEFERDTLWLNGEPHSIDNERTQNCLRDLRQLRKEMESKDASLPTLSQWKLHIVSENNFPTAAGLASSAAGFAALVSAIAKLYQLPQSTSEISRIARKGSGSACRSLFGGYVAWEMGKAEDGHDSMAVQIADSSDWPQMKACVLVVSDIKKDVSSTQGMQLTVATSELFKERIEHVVPKRFEVMRKAIVEKDFATFAKETMMDSNSFHATCLDSFPPIFYMNDTSKRIISWCHTINQFYGETIVAYTFDAGPNAVLYYLAENESKLFAFIYKLFGSVPGWDKKFTTEQLEAFNHQFESSNFTARELDLELQKDVARVILTQVGSGPQETNESLIDAKTGLPKE
notes: 6xHis-tagged, modified pET-11a, expressed in E. coli, Ni-NTA purified; calculated mass 45181
Km [1]: 190 ± 52 µM | kcat [1]: 2.8 ± 0.5 s⁻¹

B2: phosphomevalonate kinase (Erg8) (Saccharomyces cerevisiae S288C) (protein)
chain: MSELRAFSAPGKALLAGGYLVLDTKYEAFVVGLSARMHAVAHPYGSLQGSDKFEVRVKSKQFKDGEWLYHISPKSGFIPVSIGGSKNPFIEKVIANVFSYFKPNMDDYCNRNLFVIDIFSDDAYHSQEDSVTEHRGNRRLSFHSHRIEEVPKTGLGSSAGLVTVLTTALASFFVSDLENNVDKYREVIHNLAQVAHCQAQGKIGSGFDVAAAAYGSIRYRRFPPALISNLPDIGSATYGSKLAHLVDEEDWNITIKSNHLPSGLTLWMGDIKNGSETVKLVQKVKNWYDSHMPESLKIYTELDHANSRFMDGLSKLDRLHETHDDYSDQIFESLERNDCTCQKYPEITEVRDAVATIRRSFRKITKESGADIEPPVQTSLLDDCQTLKGVLTCLIPGAGGYDAIAVITKQDVDLRAQTANDKRFSKVQWLDVTQADWGVRKEKDPETYLDK
notes: 6xHis-tagged, modified pET-11a, expressed in E. coli, Ni-NTA purified; calculated mass 51520
Km [2]: 780 ± 280 µM | kcat [2]: 22 ± 7 s⁻¹

B3: mevalonate kinase (Erg12) (Saccharomyces cerevisiae S288C) (protein)
chain: MSLPFLTSAPGKVIIFGEHSAVYNKPAVAASVSALRTYLLISESSAPDTIELDFPDISFNHKWSINDFNAITEDQVNSQKLAKAQQATDGLSQELVSLLDPLLAQLSESFHYHAAFCFLYMFVCLCPHAKNIKFSLKSTLPIGAGLGSSASISVSLALAMAYLGGLIGSNDLEKLSENDKHIVNQWAFIGEKCIHGTPSGIDNAVATYGNALLFEKDSHNGTINTNNFKFLDDFPAIPMILTYTRIPRSTKDLVARVRVLVTEKFPEVMKPILDAMGECALQGLEIMTKLSKCKGTDDEAVETNNELYEQLLELIRINHGLLVSIGVSHPGLELIKNLSDDLRIGSTKLTGAGGGGCSLTLLRRDITQEQIDSFKKKLQDDFSYETFETDLGGTGCCLLSAKNLNKDLKIKSLVFQLFENKTTTKQQIDDLLLPGNTNLPWTS
Km (purified protein): 460 ± 153 µM | kcat (purified protein): 5.5 s⁻¹
